How the values were obtained:
human CD40-GST = target: T1, human CD40-GST (human, UniProt P25942 21-193); test: phage ELISA on immobilized human CD40-GST, anti-M13-HRP detection
T1 construct: also called human CD40-GST protein; not shown: GST region of the N5 vector
Description: (§1) In the ELISA, MAXISORP (manufactured by NUNC, Inc.) in which the human or monkey CD40-GST in Example 1 was immobilized on each well and a portion to which the human or monkey CD40-GST is not bound was blocked using SuperBlock Blockig Buffer (manufactured by Thermo Fisher. Inc.) was used. To each well, each phage clone was added and reacted at room temperature for 30 minutes, and thereafter, each well was washed 3 times with PBS-T.

monkey CD40-GST = target: T2, monkey CD40-GST (monkey, UniProt P25942 21-193 (human entry)); test: phage ELISA on immobilized monkey CD40-GST, anti-M13-HRP detection
T2 construct: also called monkey CD40-GST protein; not shown: GST region of the N5 vector
T2 chain: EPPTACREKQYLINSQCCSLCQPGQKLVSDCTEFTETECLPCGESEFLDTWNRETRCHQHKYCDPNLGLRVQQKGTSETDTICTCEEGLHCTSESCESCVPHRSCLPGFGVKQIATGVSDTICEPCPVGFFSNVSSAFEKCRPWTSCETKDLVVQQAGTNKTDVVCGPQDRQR
Description: as §1

B1: R1090S55A (monoclonal phage clone displaying scFv) (scFv, V domains shown)
VH: EVQLVQSGAEVKKPGESLKISCKGSGYSFIIYWIGWVRQMPGKGLEWMGIIYPNDADTRYSPSFQGQVTISADKSISTAYLQWSSLKASDTAMYYCVRLGTRDWFDPWGQGTLVTVSS
VL: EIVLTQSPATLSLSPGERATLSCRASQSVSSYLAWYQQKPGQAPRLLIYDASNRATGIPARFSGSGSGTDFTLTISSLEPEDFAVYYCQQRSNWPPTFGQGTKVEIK
notes: also called anti-CD40 antibody R1090S55A
Which results are given for B1?
binding result (human CD40-GST): binds; binding result (monkey CD40-GST): binds

Reference: patent publication US20220259328A1 (Kyowa Kirin, published 2022)
